Reference: a protein production outcome set (Wang et al. 2014)

Assay: label from the status in PepcDB records
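Also: failed if final PepcDB status was selected cloned or expressed and not failed if soluble or beyond.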

In the case of “MSLKRRQTNIIGVYLADYGGSFYGELLEGIKKGLALFDYEMIVCSGKKSHLFIPEKMVDGAIILDWTFPTKEIEKFAERGHSIVVLDRTTEHRNIRQVLLDNRGGATQAIEQFVNVGSKKVLLLSGPEKGYDSQERLAVSTRELTRFGIPYEIIQGDFTEPSGYAAAKKILSQPQTEPVDVFAFNDEMAIGVYKYVAETNYQMGKDIRIIGFDNSELGAFVQPRLATIAYSKHRWGMVAAEKIIHLMRGEAAESEHIYTRFIEGESFPSEGHHHHHH”, the protein production is reported as “not failed”.

In the case of “MQAGPSAAVENKIITLVESILAQNGIAGGIERDTTFADAGLTSMEMVNLMLAVEAEFDMTLPQSDITPENFTSAATVAQLVSRRQHAQAALEHHHHHH”, the protein production is reported as “not failed”.

For “MDELLEKAKKVREAWDVLRNATTREKNKAIKKIAEKLDERRKEILEANRIDVEKARERGVKESLVDRLALNDKRIDEMIKACETVIGLKDPVGEVIDSWVREDGLRIARVRVPIGPIGIIYESRPNVTVETTILALKSGNTILLRGGSDALNSNKAIVSAIREALKETEIPESSVEFIENTDRSLVLEMIRLREYLSLVIPRGGYGLISFVRDNATVPVLETGVGNCHIFVDESADLKKAVPVIINAKTQRPGTCNAAEKLLVHEKIAKEFLPVIVEELRKHGVEVRGCEKTREIVPDVVPATEDDWPTEYLDLIIAIKVVKNVDEAIEHIKKYSTGHSESILTENYSNAKKFVSEIDAAAVYVNASTRFTDGGQFGFGAEIGISTQRFHARGPVGLRELTTYKFVVLGEYHVRE”, the protein production was “not failed”.

In the case of “MEIKNIKEFEKASKKLQKDTLKIALALLFLIGAALLALIFGQANSKGLLLIFAAVIGGYMAMNIGANDVSNNVGPAVGSKAISMGGAILIAAICEMLGAIIAGGEVVSTIKGRIVSPEFINDAHIFINVMLASLLSGALWLHVATLIGAPVSTSHSVVGGIMGAGMAAAGMVAVNWHFLSGIVASWVISPLMGALIAMFFLMLIKKTIAYKEDKKSAALKVVPYLVALMSLTFSWYLIVKVLKRLYALNFEIQLACGCILALLIFILFKRFVLKKAPQLENSHESINELFNVPLIFAAALLSFAHGANDVANAIGPLAAISQTLEDANSPIGNTLSSVPLWIMVVGAAGIALGLSLYGPKLIKTVGSEITELDKMQAFCIALSAVITVLLASQLGLPVSSTHIVVGAVFGVGFLRERLREQSRRRFARIRDNIVAAHFGEDLEEIEGFLERFDKANLKEKSLMLESLKKSKNTAIALELKKKEKKSLKKVYKEEVIKRSILKKIVTAWLVTVPVSALLGALLFVALGFIEKYF”, the protein production is reported as “failed”.

In the case of “TMLRVRSRDGLERVSVDGPHITVSQLKTLIQDQLQIPIHNQTLSTNRNLLLAKSPSDFLAFTDMADPNLRISSLNLAHGSMVYLAYEGERTIRG”, the protein production is reported as “not failed”.

With “MANIEIRQETPTAFYIKVHDTDNVAIIVNDNGLKAGTRFPDGLELIEHIPQGHKVALLDIPANGEIIRYGEVIGYAVRAIPRGSWIDESMVVLPEA” the protein production was “not failed”.

With “MVGERMWWWSSSSTKLRSNLERFLRGITPKPPSFSLSQSCKNDLNSLWIHENKDEIEYFRLSDLWDCFDEPSAYGLGSKVDLNNGESVMQYYVPYLSAIQIYTNKSTAISRIHSDVVDCESECWSDDSEIEKLSRSMSSGSSKIWDSVSDDSGYEIDGTSSLMRDKLGSIDFQYFESVKPHLRVPLTAKVNELAEKYPGLSTLRSVDLSPASWLAIAWYPIYHIPSRKTDKDLSTCFLSYHTLSSAFQGNLIEGDDEINETMKEETLCFDEGPVTKSIPLAPFGLVSYKLQGDLWRNQECGDQGRIVYLRSAADSWLKQLNVQDHHDHSFFSMNMSL” the protein production was “failed”.

For “MSFKRDRGDYKGRIDWFTIILYLLLVVAGWFAVCGASYDFDISHLFMMGGRPMMQLLWIGLAVVIGFMVLLMETDIFESLAPVFYAAMLGLLALTILIAPDIKGSHSWLVIGPLRLQPAEFAKVTTALFLAWKLNQNDFVLRGMKAYASTFAIILIPVLLILMQNETGSALVYIAFFLALYREGMSGVFIGIAFCAVLFFVTALKLQGDVWWGHTDAAEWSVVSMAFVIGFFLVRIYTKERGRFYVVAAGLTAVTYAVAIVLSYFVSVDFVLVAYGLLAALIVWALSMAIKRYVLSYALIAVFALCSVGYFYSVDYVFNKVMQPHQQMRIRVALGIEDDLRGGGYNVDQSKIAIGSGGFMGKGFLKGTQTKLKYVPEQDTDFIFCTVGEEQGFLGSVLLLIGYATLIIRIVALAERQTKVFSRVYGHSVAAILLFHLSINVGMVIGLVPVIGIPLPFFSYGGSSLWGFTLLIFIFLRLDADRDCR”, the protein production was “failed”.

For “MIYLAITTLIWAFSFGLIGNALKGLDPLQIADTRLLLALIAFIPFMKFGNTNGKEKRQLILLGALQYGVMYTCYLSAFRYLPSHLVALFSVLTPLYIVIINDLRQRSFTPWYLVATVLSVFGAAIIKMGNIDSNEIWLGFGLMQVANLAFAFGQVYYRDWKRSRAHITDSSIFGFLYLGAAIFTTIATLLISHQPPIPLNATPTQWFVLVYMGIIASGLCFFLWNKGGTQTSVGVLATFNNAVVPLAMFASLFIFGEAKGGTPEELVRLTIGSLLIVSALLIAKRK”, the protein production was “failed”.

For “MAPARLRADTGSGEPIIHSTLLYILLAATISGVGSIFGAALLSLTVASRVVERMVSFSVGVLLATALLHSLPEAFESGADTRALFGTLLAGLLGFFLLEKISLLRHSHHHEGDGHHHHHGHDREEAGRSGLTILVGDTFHNFADGIVIAAAFLANPHIGIVTALAIAAHEIPQEVGDFIVLLNAGFSKARAFAFNLLSSLAAIIGGLVGYFLLDQLTGWIPYVLVIASSSFLYIAVSDLMPQMQRKPRLKESAVQVVLVAAGIAAIVFITNGVHEQHGHRHSRTAAGVTSN”, the protein production was “failed”.

With “MQVFIMRHGDAALDAASDSVRPLTTNGCDESRLMANWLKGQKVEIERVLVSPFLRAEQTLEEVGDCLNLPSSAEVLPELTPCGDVGLVSAYLQALTNEGVASVLVISHLPLVGYLVAELCPGETPPMFTTSAIASVTLDESGKGEFNWQMSPCNLKMAKAI” the protein production was “not failed”.

In the case of “ARNAVMVIDGIPVTKSSNTINDALEGVTFNLLKANPGTTTTLTVEKDKSNVEAAVNAFVKAYNDLEKTIGNLSRYDAANKQASVLTGDSTMRMIQNRMRAMLGGNQSAAGGINSLSELGISFQKDGTLALDNNKLSAVLNNPDKNIAAFFTTQGGDDTTSVEGFASRLSELIDGMTRSDGLISSRMDGINSTIKGIGKQREALEFRLESVEKRLRAQFTALDTMIASMNQ”, the protein production is reported as “not failed”.

With “MHEFLKAFKDAFPHTISILLGYLLMGMTFGMLLVQQGYDYKVALFMSLFIYAGAVQFVAITLLSAQASLMNVVIVSLLVNARQTCYALSMLDRFKNTKWRLPYLAHALTDETFALLNLYAPKEGVSEKDFIFSISLLNHSYWIFGSLVGSLVGSHFSFDTQGMEFVMTAIFIVLFMEQYKRTTNHKNAWLGIVIAVVCLALFGTEYFLLIALVLMVLALMLFRKQLEC” the protein production was “failed”.

For “MMAERPQPVAAPEEDEIDLGQLLGQIWHGKLWIGSATLAAGMLGLAWLANTAPTYRADTLLQLEEKASPLALPTALSELAGGEARSATEVEILRSRLVLGEAVAAFHLDWEAKPLRAPLVGQAVASGVLPLPEVEGLIRYDRGDSRIRLDLLEVPPEWVEEPILLTAMGEGQFALLLPDGREETGEVGRPLAVPDRGFGLRIGALEGVRGRQFVIRQLDETGAIGALRDRLTVAERGKQSSILEVGLTGRDPAEVQRTLGGIAEAYLRQNMTRSAAEAESSLEFIEGQLPEAQKAVRAAEDRLNAYRQAQQAIDLGFEGQSLLTQISAIETELRQLADQEEEIANRYTSNHPTYQRLLAMRGRLEERLAALRKEVSNLPETQREVFNFTRDLEVAQEVYLQLLNRAQELRVVKASTIGNVRIVDGARTAPEPVAPRRGRTLALALLLGALSGTGLVLGRAWLRRSVRGPEELDRLGLPVFATVLFAPAAVGNRKGRGLLPILALSDPNSATVEGIRSLRTSLHFGMLDAGSRSIALTSSAPAAGKSFTSVNLAVVAAQAGQSVCLIDADLRRGHLRRYFAVAKGTPGLAEYLAGEAELDELLRPGPVEGLAFLSTGQLPPNPSELLMRPRLAELVAELDRRFDLSIFDAPPVLAVTDPVVIGRAVGATIAVVRHDVTGLGEVEALIRQLQGAGVKPAGAVLNAYRPQRGSGRYGYGYGYRYRYDTGYRPQSGD”, the protein production was “failed”.

For “MAKSHPRWRLAKKVLTWLFFIAVVVLLVVYAKKVDWGDVWTVIRDYNRTALLSAVGLVIVSYLLYGCYDLLGRLYCGHKLAKRQVMLVSFVCYAFNLTLSTWVGGIGMRYRLYSRLGLPGSTITRIFSLSITTNWLGYILLGGIIFTFGIVQLPDHWYIDAGTLRILGIVLLLIIAVYLWFCAFAKRRHMTIKGQKLVLPSWKFALAQMAISSANWMAMGAIIWLLMGQDVNYFFVLGVLLVSSIAGVIVHIPAGIGVLEAVFLALLAGEHTSQGTIIAALLAYRVLYYFIPLLLALVCYLILESRAKKLRAKNERAMAK”, the protein production was “failed”.

In the case of “MAYDIERYLDIRGAGDPTYGPTGELAFTLGTTGTAQVWALGAPGAWPTQLTFHDERVQWASFSPTREELAYGMDTGGDEFTQLHRVSGDGSEDVQLTAFPDAKHDWGGWSHDGDRIAYTANRRDASRFDVYVQGRDEAGANADCVRVGDTFDLPSVVGWSPSDDRLLVVDTHSNFDQDVAVLDVDTGEITRATAGLDADTRFSWVAWAPDGGGVYVTTDHDADTRYLGLLDPETGAISRVADGGDWPIEAVVTAHDAGRLAYVRNRDGYSELTIADAAGTTLTEQPTPELPDGVIRGLSWGPDGDTLAVVVSAATENPNVFVVDVATGAATQWTNAATAGIPKSTFREPELVRYETFDGREIPALFTRPDGDGPHPVIVDFHGGPEGQRRPSFLSLRQYFVDNGYAVFEPNVRGSSGYGATYMNLDNVRNRMDAVADGKAGVEWLTARTDIDADRVVAYGGSYGGFMVLASLTEYPELWAAGVDIVGIANFVTFLENTGDWRREHRESEYGSLDADREFLESISPTNNADRIRAPLLVLHGANDPRVPVGEAERIVEQASAHVPVEKHVFDDEGHGFSKRANKQAAYRAVVDFLDDHA”, the protein production is reported as “failed”.

In the case of “AISPNRASHTLADIRNQLSTRILILDGAMGTMIQGYKLEEADYRGERFKDWHTDVKGNNDLLVLTQPHIIKQIHTDYLLAGADIIETNTFNATTIAMADYDMQSLSAEINREGARLAREACDAIEQATGKPRYVAGVLGPTNRTCSISPDVNDPGFRNIHFDELVTAYCESTRALIEGGADIIMVETIFDTLNAKAALFAIETVFDELFGANSPARLPVMISGTITDASGRTLTGQTTEAFYNSLRHIKPLSIGLNCALGPKELRPYVEELSRIAECYVSAHPNAGLPNEFGGYDETPEDMAKVIQEWAREGMLNIIGGCCGSTPEHIKVIREAVEQFAPRVLPEIPVACRLAGLEPLTIDAQTLFVNVGERTNVTGSAKF”, the protein production is reported as “failed”.

With “SALIAALSVSGLPSNRFTFEGFLPAKPTARRDRLTHLAHEPRTLIFYEASHRIAECLTDLATIFGSMRIAVVARELTKIFETVLDGTLATLQTQVANDENQRKGEFVIIVQGAADQ” the protein production was “failed”.

In the case of “NPDYVEVDRILEVAHTKDAETGEEVTHYLVKWCSLPYEESTWELEEDVDPAKVKEFESLQV”, the protein production is reported as “not failed”.

In the case of “MIRLTIEETNLLSIYNEGGKRGLMENINAALPFMDEDMRELAKRTLAKIAPLTENEYAELAIFAADEVLEHHHHHH”, the protein production is reported as “not failed”.
